Source: patent US20170226208A1 (SUPPREMOL, published 2017)
Each block holds one binder with its values, some of them ahead of it.

Experiments:
[1] = target: T1, native FcγRIIB expressed on cells (Raji, Daudi, PBMC B cells) (human, UniProt P31994 43-310); experiment: cell-based or functional assay
T1 sequence (looked up): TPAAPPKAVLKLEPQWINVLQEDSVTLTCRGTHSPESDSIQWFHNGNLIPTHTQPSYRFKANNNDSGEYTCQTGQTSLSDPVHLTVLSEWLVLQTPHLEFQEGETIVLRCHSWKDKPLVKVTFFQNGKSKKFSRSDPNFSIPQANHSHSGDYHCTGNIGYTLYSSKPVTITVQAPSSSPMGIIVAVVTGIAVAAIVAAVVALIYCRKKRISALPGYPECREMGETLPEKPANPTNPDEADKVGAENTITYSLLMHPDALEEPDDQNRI

[2] = target: T2, recombinant soluble human FcγRIIB (UniProt P31994 43-217); experiment: SPR; N297A format
T2 chain: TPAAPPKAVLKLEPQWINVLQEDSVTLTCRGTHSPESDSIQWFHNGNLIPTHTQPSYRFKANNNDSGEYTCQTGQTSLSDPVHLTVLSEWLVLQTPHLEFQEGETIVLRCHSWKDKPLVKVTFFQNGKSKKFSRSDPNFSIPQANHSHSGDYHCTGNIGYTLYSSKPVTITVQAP

[3] = target: FcεRI at the surface of basophils (human) (UniProt P12319); experiment: cell-based or functional assay
[4] = target: T3, recombinant soluble human FcγRIIB (human, UniProt P31994 43-217); experiment: antigen-specific ELISA, sFcγRIIB coated, hybridoma supernatant
T3 construct: also called sFcγRIIB; SM101
T3 sequence: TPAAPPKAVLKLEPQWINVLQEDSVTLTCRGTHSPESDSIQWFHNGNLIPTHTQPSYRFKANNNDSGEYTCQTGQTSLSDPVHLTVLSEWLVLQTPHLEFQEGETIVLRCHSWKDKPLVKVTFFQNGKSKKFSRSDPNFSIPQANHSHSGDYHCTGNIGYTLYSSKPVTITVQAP
Method: Fusion of the myeloma cell line with the rat immune spleen cells was performed according to standard procedures. […] MAbs from tissue culture supernatant bound to the proteins were detected with HRP conjugated mAbs against the rat IgG isotypes (TIB173 anti-IgG2a, TIB174 anti-IgG2b, TIB170 anti-IgG1 all from ATCC, R-2c anti-IgG2c homemade), thus avoiding mAbs of IgM class. […] A FACS based assay was used to screen the antibodies for specific binding of the native antigen). Additionally the antibodies were screened for non-blocking characteristics, i.e. these antibodies still allow binding of IgG or immune complexes to membrane-bound FcγRIIB.

[5] = target: T2, recombinant soluble human FcγRIIB; experiment: SPR; wildtype Fc format

Chain of FcεRI at the surface of basophils (human) (P12319 26-257): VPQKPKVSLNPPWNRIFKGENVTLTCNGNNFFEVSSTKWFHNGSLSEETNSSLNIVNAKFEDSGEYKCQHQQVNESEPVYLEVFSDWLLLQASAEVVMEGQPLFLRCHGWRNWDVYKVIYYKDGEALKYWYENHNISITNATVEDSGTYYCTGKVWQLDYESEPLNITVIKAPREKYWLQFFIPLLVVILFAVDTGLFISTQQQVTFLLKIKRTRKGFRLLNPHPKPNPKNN

B2: ch8A6_cε2-4-degly (bispecific antibody, part only; not given: CH1, CL and IgE Fc domains, not shown: a dimerising Fc or GST)
heavy, part: EVQLVESGGDLVQPGRSLRLSCAASGFTFSDYYMAWVRQAPKKGLEWVASISSDGSNTYYGDSVKGRFTISRDNTRSNLYLQMNSLRSEDTATYYCARPGDYWGQGVMVTVSS
light, part: NIVMTQSPTSMFISVGDRVTMNCKASQNVGTYVDWFQQKTGQSPTLLIFGASNRYTGVPDRFTGSGSGTDFTLSISNMQAEDLAVYYCLQYNYHPYTFGPGTTLELKR
basophil activation by pollen, CD63-positive basophils, after 2 h incubation with antibody (% positive cells) [3]: 84.4 to 88
basophil activation by pollen, CD63-positive basophils, after 6 h incubation with 0.5 µg/ml antibody [3]: 76.6%
basophil activation by pollen, CD63-positive basophils, after 6 h incubation with antibody [3]: 76 to 84%

B3: monoclonal antibody 8A6 (rat IgG2a) (antibody, V domains shown)
VH: EVQLVESGGDLVQPGRSLRLSCAASGFTFSDYYMAWVRQAPKKGLEWVASISSDGSNTYYGDSVKGRFTISRDNTRSNLYLQMNSLRSEDTATYYCARPGDYWGQGVMVTVSS
VL: NIVMTQSPTSMFISVGDRVTMNCKASQNVGTYVDWFQQKTGQSPTLLIFGASNRYTGVPDRFTGSGSGTDFTLSISNMQAEDLAVYYCLQYNYHPYTFGPGTTLELKR
notes: Rat IgG2a from hybridoma supernatant; also called mAb 8A6; rat antibody 8A6
binding result [4]: binds

Results, then the binder that gave them:

FcγRIIB-ITIM phosphorylation, densitometry of Western blot, Daudi cells, against untreated cells [1]: 2.8 fold
koff [2]: 0.01 s⁻¹
B1: chGB3_N297A (antibody, V domains shown)
VH: VQLQQSGPELVKPGASVKISCKASGYTFTDYYIYWVKQWPGQGLEWIGWIFPGTGNTYYNENFKDKATLTIDRSSSTAYMLLGSLTSEDSAVYFCYGPFAYWGQ
VL: RIQLTQSPSSLSASLGERVSLTCRASQEISGYLSWLQQKPDGTIKRLIYATSALDSGVPKRFSGSGSGSNYSLTISSLESEDFADYYCLQYANYPYTFGGGTKL

koff [5]: 0.00049 s⁻¹
B4: ch8A6_wt (antibody)
chain 1: EVQLVESGGDLVQPGRSLRLSCAASGFTFSDYYMAWVRQAPKKGLEWVASISSDGSNTYYGDSVKGRFTISRDNTRSNLYLQMNSLRSEDTATYYCARPGDYWGQGVMVTVSS
chain 2: NIVMTQSPTSMFISVGDRVTMNCKASQNVGTYVDWFQQKTGQSPTLLIFGASNRYTGVPDRFTGSGSGTDFTLSISNMQAEDLAVYYCLQYNYHPYTFGPGTTLELKR
